# Assay results: patent US20160340443A1
# pKd: −log10 of the molar value.
# What was measured:
# [1] = target: soluble single-chain FcRn (human) (UniProt P55899); experiment: SPR (BIACORE X), scFcRn amine-coupled to CM5 chip, antibody as analyte 25-400 nM, pH 6.0, two-state reaction model, Run 2
# [2] = target: soluble single-chain FcRn (human) (UniProt P55899); experiment: SPR (BIACORE X), scFcRn amine-coupled to CM5 chip, antibody as analyte 25-400 nM, pH 6.0, two-state reaction model, Run 3
# [3] = target: soluble single-chain FcRn (human) (UniProt P55899); experiment: SPR (BIACORE X), scFcRn amine-coupled to CM5 chip, pH 6.0, two-state reaction model, mean of three runs
# [4] = target: soluble single-chain FcRn (human) (UniProt P55899); experiment: SPR (BIACORE X), scFcRn amine-coupled to CM5 chip, antibody as analyte 25-400 nM, pH 6.0, two-state reaction model, Run 1
# Chain of soluble single-chain FcRn (human) (P55899 24-297 limits assumed, chain 1 of 2): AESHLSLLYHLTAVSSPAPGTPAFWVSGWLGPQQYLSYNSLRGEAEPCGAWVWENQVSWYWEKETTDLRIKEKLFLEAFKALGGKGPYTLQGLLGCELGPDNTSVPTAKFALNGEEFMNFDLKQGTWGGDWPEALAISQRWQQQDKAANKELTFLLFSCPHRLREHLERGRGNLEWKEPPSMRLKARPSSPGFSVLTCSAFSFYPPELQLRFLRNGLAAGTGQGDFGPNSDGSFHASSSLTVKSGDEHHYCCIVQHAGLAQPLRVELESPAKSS
# Chain of soluble single-chain FcRn (human) (P61769 21-119 limits assumed, chain 2 of 2, further chain): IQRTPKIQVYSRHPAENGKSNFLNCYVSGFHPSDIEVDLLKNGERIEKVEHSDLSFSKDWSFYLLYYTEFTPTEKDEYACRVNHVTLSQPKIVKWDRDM
substance,measurement,setting,value
epratuzumab (antibody),pKd,[1],7.75
same,pKd,[2],7.80
same,pKd,[3],7.79
same,pKd,[4],7.82
